Entries after “also recorded” stand apart in the source; their conditions may differ.
Columns and labels:
[1] = molecular target: T1, human PAR1 (Homo sapiens, UniProt P25116); assay: Calcium signaling assay, PAR1 activation/disarming in HEK cells; format: cell-based
T1 construct: The human HEK293 cells, that constitutively express both PAR1 and PAR2; endogenous in cells; host or cells: HEK293 (expressing SV40 T-antigen)
T1 sequence (P25116 22-425): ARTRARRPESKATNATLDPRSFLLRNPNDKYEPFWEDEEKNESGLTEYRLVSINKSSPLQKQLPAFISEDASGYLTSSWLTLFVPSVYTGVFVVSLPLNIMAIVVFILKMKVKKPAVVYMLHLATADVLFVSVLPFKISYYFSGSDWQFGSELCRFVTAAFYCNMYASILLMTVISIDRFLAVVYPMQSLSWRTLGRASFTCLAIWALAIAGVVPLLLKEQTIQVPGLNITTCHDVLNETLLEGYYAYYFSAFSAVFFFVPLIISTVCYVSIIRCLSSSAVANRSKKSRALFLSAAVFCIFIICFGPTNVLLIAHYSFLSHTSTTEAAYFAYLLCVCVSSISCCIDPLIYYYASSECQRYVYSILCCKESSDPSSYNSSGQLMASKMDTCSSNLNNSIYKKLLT
From the text: The Kirsten virus-transformed normal rat kidney (KNRK) epithelial cell line expressing wild-type rat PAR2 (KNRKrPAR2), validated previously for studies of receptor activation was used to evaluate the PAR2-regulating properties of the ISP1 by the methods described previously. Human embryonic kidney cells (HEK293) that express the SV40 T-antigen were kindly provided by Dr. Jonathan Lytton, University of Calgary, Faculty of Medicine, Calgary (Alberta) Canada. The human HEK293 cells, that constitutively express both PAR1 and PAR2, were grown under similar conditions as described for the KNRK cells, but in the absence of geneticin, as outlined for the PAR-mediated calcium signaling procedure described previously. All cells were sub-cultured by dissociation in an isotonic EDTA/saline solution, pH 7.4, without the use of trypsin, to avoid cleavage of PARs.
Cell lines (grown to about 85% confluence and disaggregated with calcium-free isotonic phosphate-buffered saline containing 0.2 mM EDTA) and rat platelets (harvested from platelet-rich anti-coagulated plasma) were prepared and used as previously described. Cells were incubated for 25 min at room temperature with Fluo-3 acetoxymethyl ester (final concentration, 22 µM) along with 0.4 mM sulfinpyrazone. Cells were washed twice by centrifugation (using the following buffer without calcium) and resuspended in the calcium signaling buffer: 150 mM NaCl, 3 mM KCl, 1.5 mM CaCl2, 20 mM HEPES, 10 mM dextrose, and 0.25 mM sulfinpyrazone, pH 7.4.
Fluorescence was measured at 24 °C with an excitation wavelength of 480 nm and an emission recorded at 530 nm using an Aminco Bowman Series 2 Luminescence spectrometer (ThermoSpectronic Model FA354, Spectronic Unicam, Rochester, NY). The fluorescence signals caused by the addition of test agonists (trypsin, PAR-activating peptide or rISP1, added to 2 ml of a cell suspension of ~3 x 10^5 cells/ml) were compared with the fluorescence peak height yielded by replicate cell suspensions treated with 2 µM ionophore A23187. This concentration of A23187 was at the plateau of its concentration-response curve for a fluorescence response in Fluo-3-loaded cultured cells. Under these conditions, the calculated values for intracellular calcium in the HEK and KNRK cells were [picture] […]
Previous work has shown that the fluorescence response of a cell preparation, as a percentage relative to the signal generated by 2 µM A23187, is a valid reference standard for the comparative determination of calcium signals for all PAR agonists. The cellular calcium response was therefore recorded as a percentage of the response generated by 2 µM ionophore A23187 [6]. […]
Receptor activation was monitored as an enzyme-stimulated increase in fluorescence emission (E530). […]

[2] = test system: rat PAR2-expressing KNRK cells; assay: P44/42 ERK/MAP kinase activation in rat PAR2-expressing KNRK cells; format: cell-based; conditions: ISP1 for 10 min
Experimental: Western blot detection of P44/42 ERK was performed essentially as described. In brief, KNRK cells that had been transfected with the PAR2 expressing construct (PAR2 -KNRK) or empty vector (pcDNA3-KNRK) were serum starved and stimulated with ISP1 for 10 min. Cells were placed on ice and agonists were removed prior to lysis with cold lysis buffer (Roche). Protein samples were boiled for 10 min in Laemelis buffer and resolved on SDS-PAGE gels. Activation of MAP Kinase was monitored by immunoblotting with phospho-specific ERK antibodies (Cell signaling) and relative increases in ERK phosphorylation was quantified relative to total ERK signal detected in the same samples. As a positive control cells were activated with SLIGRL-NH2 that causes a PAR2-mediated increase in MAPkinase phosphorylation.

B1: ISP1: recombinant implantation serine proteinase 1 expressed in Pichia pastoris, also known as Mouse Prss28 (protein, UniProt Q924N9 27-274, looked up)
Serine protease 28: KPVGIVGGQRTPPGKWPWQVSLRMYSYEVNSWVHICGGSIIHPQWILTAAHCIQSQDADPAVYRVQVGEVYLYKEQELLNISRIIIHPDYNDVSKRFDLALMQLTALLVTSTNVSPVSLPKDSSTFDSTDQCWLVGWGNLLQRVPLQPPYQLHEVKIPIQDNKSCKRAYRKKSSDEHKAVAIFDDMLCAGTSGRGPCFGDSGGPLVCWKSNKWIQVGVVSKGIDCSNNLPSIFSRVQSSLAWIHQHIQ
modifications: recombinant, Pichia pastoris-expressed
notes: recombinant implantation serine proteinase 1 expressed in Pichia pastoris, also known as Mouse Prss28
[1]; TFLLR-NH2 (5 µM), concentration-dependent
  Cellular response to PAR1-activating peptide after ISP1 pre-treatment: diminished
[1]; enzyme alone
  Activation of a calcium signal via PAR1: did not activate a calcium signal
[1]; pre-treatment with 5 Units/ml ISP1, then thrombin (0.5 units/ml)
  residual PAR1 activity: 20%
[1]; pre-treatment with 20 units ISP1/ml, then thrombin (0.5 units/ml)
  residual PAR1 activity: eliminate PAR1 activity completely
[2]
  Phosphorylation status of ERK via MAP kinase activation: No change in phosphorylation status of ERK; also recorded: No activation of ERK

Reference: PMC3223204, “Implantation Serine Proteinase 1 Exhibits Mixed Substrate Specificity that Silences Signaling via Proteinase-Activated Receptors” (PLoS ONE, 2011)
